Results reported in patent publication US20060121032A1 (published 2006).

target: extracellular region of human V158 FcγRIIIa with C-terminal 6×His-tag and GST-tag (human, UniProt P08637 17-208); experiment: SPR
Sequence (P08637 17-208 F176V): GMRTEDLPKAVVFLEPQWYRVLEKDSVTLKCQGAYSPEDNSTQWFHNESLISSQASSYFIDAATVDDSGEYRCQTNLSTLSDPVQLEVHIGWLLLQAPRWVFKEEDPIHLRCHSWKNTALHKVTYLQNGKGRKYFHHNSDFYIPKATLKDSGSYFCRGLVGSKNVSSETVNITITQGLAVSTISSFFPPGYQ

Row | Fold WT [fold] | Binder
1 | 5.66 | alemtuzumab H268D (antibody) chain 1: not shown chain 2: not shown
2 | 6.69 | alemtuzumab G236S (antibody) chain 1: not shown chain 2: not shown
3 | 1.51 | alemtuzumab V284E (antibody) chain 1: not shown chain 2: not shown
4 | 2.62 | alemtuzumab S267E (antibody) chain 1: not shown chain 2: not shown
5 | 2.31 | alemtuzumab E283H (antibody) chain 1: not shown chain 2: not shown
6 | 14.2 | alemtuzumab S324G (antibody) chain 1: not shown chain 2: not shown
7 | 384 | alemtuzumab E272H (antibody) chain 1: not shown chain 2: not shown
8 | 5.5 | alemtuzumab E258H (antibody) chain 1: not shown chain 2: not shown
9 | 1.41 | alemtuzumab E272P (antibody) chain 1: not shown chain 2: not shown
10 | 1.77 | alemtuzumab E258Y (antibody) chain 1: not shown chain 2: not shown
11 | 1.41 | alemtuzumab R255Y (antibody) chain 1: not shown chain 2: not shown
12 | 7.07 | alemtuzumab K246Y (antibody) chain 1: not shown chain 2: not shown
13 | 22.4 | alemtuzumab K246H (antibody) chain 1: not shown chain 2: not shown
14 | 2.56 | alemtuzumab E283L (antibody) chain 1: not shown chain 2: not shown
15 | 12.8 | alemtuzumab S304T (antibody) chain 1: not shown chain 2: not shown
